B1: BBSome complex member BBS4 (Homo sapiens), Q96RK4 (parent)
chain: MAEERVATRTQFPVSTESQKPRQKKAPEFPILEKQNWLIHLHYIRKDYEACKAVIKEQLQETQGLCEYAIYVQALIFRLEGNIQESLELFQTCAVLSPQSADNLKQVARSLFLLGKHKAAIEVYNEAAKLNQKDWEISHNLGVCYIYLKQFNKAQDQLHNALNLNRHDLTYIMLGKIHLLEGDLDKAIEVYKKAVEFSPENTELLTTLGLLYLQLGIYQKAFEHLGNALTYDPTNYKAILAAGSMMQTHGDFDVALTKYRVVACAVPESPPLWNNIGMCFFGKKKYVAAISCLKRANYLAPFDWKILYNLGLVHLTMQQYASAFHFLSAAINFQPKMGELYMLLAVALTNLEDIENAKRAYAEAVHLDKCNPLVNLNYAVLLYNQGEKKNALAQYQEMEKKVSLLKDNSSLEFDSEMVEMAQKLGAALQVGEALVWTKPVKDPKSKHQTTSTSKPASFQQPLGSNQALGQAMSSAAAYRTLPSGAGGTSQFTKPPSLPLEPEPAVESSPTETSEQIREK
partner: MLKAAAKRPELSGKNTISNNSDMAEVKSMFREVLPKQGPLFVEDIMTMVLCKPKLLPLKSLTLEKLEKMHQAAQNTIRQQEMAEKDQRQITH
B2: BBSome complex member BBS2 (Homo sapiens), Q9BXC9 (parent)
chain: MLLPVFTLKLRHKISPRMVAIGRYDGTHPCLAAATQTGKVFIHNPHTRNQHVSASRVFQSPLESDVSLLSINQAVSCLTAGVLNPELGYDALLVGTQTNLLAYDVYNNSDLFYREVADGANAIVLGTLGDISSPLAIIGGNCALQGFNHEGSDLFWTVTGDNVNSLALCDFDGDGKKELLVGSEDFDIRVFKEDEIVAEMTETEIVTSLCPMYGSRFGYALSNGTVGVYDKTSRYWRIKSKNHAMSIHAFDLNSDGVNELITGWSNGKVDARSDRTGEVIFKDNFSSAIAGVVEGDYRMDGHIQLICCSVDGEIRGYLPGTAEMRGNLMDTSAEQDLIRELSQKKQNLLLELRNYEENAKAELASPLNEADGHRGIIPANTRLHTTLSVSLGNETQTAHTELRISTSNDTIIRAVLIFAEGIFTGESHVVHPSIHNLSSSICIPIVPPKDVPVDLHLKAFVGYRSSTQFHVFESTRQLPRFSMYALTSLDPASEPISYVNFTIAERAQRVVVWLGQNFLLPEDTHIQNAPFQVCFTSLRNGGHLHIKIKLSGEITINTDDIDLAGDIIQSMASFFAIEDLQVEADFPVYFEELRKVLVKVDEYHSVHQKLSADMADHSNLIRSLLVGAEDARLMRDMKTMKSRYMELYDLNRDLLNGYKIRCNNHTELLGNLKAVNQAIQRAGRLRVGKPKNQVITACRDAIRSNNINTLFKIMRVGTASS
partner: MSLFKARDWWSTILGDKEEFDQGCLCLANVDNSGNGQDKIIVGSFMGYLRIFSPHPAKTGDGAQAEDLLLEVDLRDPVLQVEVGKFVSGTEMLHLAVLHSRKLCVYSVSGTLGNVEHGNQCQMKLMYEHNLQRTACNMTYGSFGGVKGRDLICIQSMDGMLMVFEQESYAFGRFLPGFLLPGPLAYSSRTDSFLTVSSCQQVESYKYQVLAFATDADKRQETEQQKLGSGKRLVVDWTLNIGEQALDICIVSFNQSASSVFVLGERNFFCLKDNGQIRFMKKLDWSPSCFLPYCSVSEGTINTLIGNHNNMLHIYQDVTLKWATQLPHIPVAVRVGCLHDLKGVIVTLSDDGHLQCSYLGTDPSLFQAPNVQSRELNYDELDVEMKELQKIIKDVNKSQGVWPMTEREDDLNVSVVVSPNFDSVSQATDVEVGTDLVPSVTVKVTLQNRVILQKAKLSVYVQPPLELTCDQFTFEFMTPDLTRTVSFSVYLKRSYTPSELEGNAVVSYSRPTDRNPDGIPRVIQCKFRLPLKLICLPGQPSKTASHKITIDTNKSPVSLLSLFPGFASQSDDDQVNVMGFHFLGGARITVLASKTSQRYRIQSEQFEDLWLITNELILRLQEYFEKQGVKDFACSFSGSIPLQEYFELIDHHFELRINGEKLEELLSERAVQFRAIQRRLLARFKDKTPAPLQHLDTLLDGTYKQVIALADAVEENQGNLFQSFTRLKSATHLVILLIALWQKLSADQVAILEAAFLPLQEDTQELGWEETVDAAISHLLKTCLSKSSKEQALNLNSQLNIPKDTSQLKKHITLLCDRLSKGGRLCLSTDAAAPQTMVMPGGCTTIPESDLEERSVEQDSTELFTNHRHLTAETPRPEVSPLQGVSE

Variants of: B1
Settings: with bbip1_human BBIP1, A8MTZ0

effect of a mutation on the interaction | Variant
with no effect | N274K
with no effect | G277E
with no effect | M278A
with no effect | P271K
with no effect | P271E
with no effect | F280A
with no effect | F280K
with no effect | F281E
with no effect | C279A
with no effect | C279K

More lines, now with the values behind:

Variant | effect of a mutation on the interaction
I276A | with no effect
I276E | with no effect
I276K | with no effect
N274E | with no effect
N274A | with no effect
L272E | with no effect
L272A | with no effect
L272K | with no effect
G277K | with no effect
G277A | with no effect
M278E | with no effect
M278L | disrupting interaction strength
M278T | disrupting interaction strength
M278K | with no effect
W273K | with no effect
W273A | with no effect
W273E | with no effect
P270K | with no effect
P270A | with no effect
P270E | with no effect

Variant | effect of a mutation on the interaction
K283A | with no effect
K283E | with no effect
S269E | with no effect
S269K | with no effect
S269A | with no effect
P271A | with no effect
G282K | with no effect
G282A | with no effect
G282E | with no effect
F280E | with no effect
N275E | with no effect
N275A | with no effect
N275K | with no effect
E268K | with no effect
E268A | with no effect
F281A | with no effect
F281K | with no effect
F281S | disrupting interaction strength
C279E | with no effect

Variants of: B1
Settings: with bbip1_human BBIP1, A8MTZ0
Remark: another data set of the same source

Variant | effect of a mutation on the interaction
L327P | disrupting interaction strength
N377Y | disrupting interaction strength

Variants of: B2
Settings: with pthb1_human BBS9, Q3SYG4

effect of a mutation on the interaction | Variant
with no effect | G688E
with no effect | V675E
with no effect | V675A
with no effect | T709E
with no effect | T709A
with no effect | I707A
with no effect | K691A
with no effect | V716E
with no effect | I713A
with no effect | M714K
with no effect | K689E
with no effect | N692A
with no effect | N692E
with no effect | A719K
with no effect | L685K
with no effect | N706E
with no effect | N706K
with no effect | N706A
with no effect | F711K
with no effect | A678E
with no effect | V687A
with no effect | I695E
with no effect | N708K
with no effect | N708A

effect of a mutation on the interaction | Variant
with no effect | N708E
with no effect | I702K
with no effect | I702E
with no effect | K712A
with no effect | I679E
with no effect | I679A
with no effect | V694E
with no effect | V694A
with no effect | V694K
with no effect | Q677A
with no effect | A682K
with no effect | A697K
with no effect | C698K
with no effect | Q693A
with no effect | Q693K
with no effect | R686E
with no effect | R686A
with no effect | G717A
with no effect | Q680A
with no effect | R684K
with no effect | R684E
with no effect | S704A
with no effect | S704K
with no effect | S721K

The remaining lines, values behind:

Variant | effect of a mutation on the interaction
R681E | with no effect
R681A | with no effect
R681K | with no effect
T696A | with no effect
T696E | with no effect
T696K | with no effect
G688A | with no effect
V675K | with no effect
T709K | with no effect
I707K | with no effect
I707E | with no effect
K691E | with no effect
V716K | with no effect
V716A | with no effect
I713K | with no effect
I713E | with no effect
M714A | with no effect
M714E | with no effect
K689A | with no effect
A674K | with no effect
N692K | with no effect
A719E | with no effect

Variant | effect of a mutation on the interaction
G683K | with no effect
G683E | with no effect
G683A | with no effect
L685E | with no effect
L685A | with no effect
N676A | with no effect
N676K | with no effect
N676E | with no effect
F711E | with no effect
F711A | with no effect
A678K | with no effect
V687E | with no effect
V687K | with no effect
I695A | with no effect
I695K | with no effect
I702A | with no effect
K712E | with no effect
I679K | with no effect
Q677E | with no effect
Q677L | disrupting interaction strength
Q677K | with no effect
L710A | with no effect

Variant | effect of a mutation on the interaction
L710E | with no effect
L710K | with no effect
A682E | with no effect
A697E | with no effect
R715E | with no effect
R715A | with no effect
R715K | with no effect
C698E | with no effect
C698A | with no effect
Q693E | with no effect
R699E | with no effect
R699K | with no effect
R699A | with no effect
A701K | with no effect
A701E | with no effect
R686K | with no effect
P690E | with no effect
P690A | with no effect
P690K | with no effect
D700K | with no effect
D700E | with no effect
D700A | with no effect

Variant | effect of a mutation on the interaction
S720K | with no effect
S720E | with no effect
S720A | with no effect
T718K | with no effect
T718A | with no effect
T718E | with no effect
G717E | with no effect
G717K | with no effect
Q680E | with no effect
Q680K | with no effect
N705K | with no effect
N705A | with no effect
N705E | with no effect
R703K | with no effect
R703A | with no effect
R703E | with no effect
R684A | with no effect
S704E | with no effect
S721E | with no effect
S721A | with no effect

Reference: IntAct's records for PubMed 29039417
